Results published in article PMC6299077 (Nature Communications, 2018).

Target: the molecule itself
Test: SEC; […] (~2.7–27 μM), […] (pH 4.4–5.6); […]

B1: tHN of BoNT/A1 (beltless translocation domain of botulinum neurotoxin A1, residues K547–K871) (domain or fragment)
chain: KYTMFHYLRAQEFEHGKSRIALTNSVNEALLNPSRVYTFFSSDYVKKVNKATEAAMFLGWVEQLVYDFTDETSEVSTTDKIADITIIIPYIGPALNIGNMLYKDDFVGALIFSGAVILLEFIPEIAIPVLGTFALVSYIANKVLTVQTIDNALSKRNEKWDEVYKYIVTNWLAKVNTQIDLIRKKMKEALENQAEATKAIINYQYNQYTEEEKNNINFNIDDLSSKLNESINKAMININKFLNQCSVSYLMNSMIPYGVKRLEDFDASLKDALLKYIYDNRGTLIGQVDRLKDKVNNTLSTDIPFQLSKYVDNQRLLSTFTEYIK
- binding result: binds
